Source: publication PMC11758708, “Natural variation in MdNAC5 contributes to fruit firmness and ripening divergence in apple”

Molecular target: MdNAC5A (Malus x domestica (Fuji / Cripp's Pink), UniProt A0A498K6T8 1-364)
Assay: EMSA; EMSA/Gel-Shift Kit (Beyotime) per instructions; buffer, salt, pH and temperature not stated
Details: protein: recombinant; tags: His (pET-32a); chain copies: 2; label: 3' biotin (both strands); blunt

MdNAC5A, sequence (A0A498K6T8 entry or part of it): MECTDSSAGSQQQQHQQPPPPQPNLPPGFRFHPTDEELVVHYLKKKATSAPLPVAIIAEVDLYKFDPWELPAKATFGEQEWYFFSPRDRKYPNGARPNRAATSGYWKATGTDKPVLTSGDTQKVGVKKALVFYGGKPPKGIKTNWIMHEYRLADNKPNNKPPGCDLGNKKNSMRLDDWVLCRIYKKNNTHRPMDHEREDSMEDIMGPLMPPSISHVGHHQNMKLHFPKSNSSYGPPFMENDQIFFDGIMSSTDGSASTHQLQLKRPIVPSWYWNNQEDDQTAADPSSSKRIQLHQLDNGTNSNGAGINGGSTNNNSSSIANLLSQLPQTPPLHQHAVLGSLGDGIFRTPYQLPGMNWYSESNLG

B1: MdACS1 probe (dsDNA)
DNA 1: CCTGTGACAATATTACATGTGGCATGTCAATTGAGA
DNA 2: TCTCAATTGACATGCCACATGTAATATTGTCACAGG
Q: Does B1 bind?
A: Result: binds
